Key:
CTLA4-mFc [1] = target: T1, CTLA4-mFc; test: competitive ELISA, competitor B7-1
T1 construct: also called CTLA4ECD-mFc fusion protein; CTLA4 antigen
Experimental: (§1) After incubation at 37° C. for 40 minutes, the enzyme conjugated secondary antibody was added. After incubation at 37° C. for 30 minutes, the absorbance at 450 nm was detected on an ELISA plate reader.
Target sequence in this assay (chain, as listed by the source limits assumed): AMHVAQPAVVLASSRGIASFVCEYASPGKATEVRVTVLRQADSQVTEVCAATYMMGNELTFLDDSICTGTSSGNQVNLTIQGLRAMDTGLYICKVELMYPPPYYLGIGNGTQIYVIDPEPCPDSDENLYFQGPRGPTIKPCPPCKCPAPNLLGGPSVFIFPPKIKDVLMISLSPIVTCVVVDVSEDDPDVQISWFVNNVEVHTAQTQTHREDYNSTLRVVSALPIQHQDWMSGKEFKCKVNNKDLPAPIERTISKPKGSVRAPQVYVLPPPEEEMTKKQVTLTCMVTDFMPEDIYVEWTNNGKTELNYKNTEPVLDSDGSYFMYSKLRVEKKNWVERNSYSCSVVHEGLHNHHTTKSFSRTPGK

CTLA4-mFc [2] = target: T1, CTLA4-mFc; test: competitive ELISA, competitor B7-2
Experimental: as §1
Target sequence in this assay (chain, as listed by the source limits assumed): as above

CTLA4-mFc [3] = target: T1, CTLA4-mFc; test: competitive ELISA, CTLA4-mFc coated, competitor B7/2-His; antibody 1 µg/ml
Experimental: as §1

CTLA4-mFc [4] = target: T1, CTLA4-mFc; test: competitive ELISA, B7/1-hFc coated (competitor), CTLA4-mFc added; antibody 5 µg/ml
Experimental: as §1

CTLA4-mFc [5] = target: T1, CTLA4-mFc; test: competitive ELISA, CTLA4-mFc coated, competitor B7/2-His; antibody 1 µg/ml diluted 1:3
Experimental: as §1

CTLA4-mFc [6] = target: T1, CTLA4-mFc; test: competitive ELISA, CTLA4-mFc coated, competitor B7/2-His; antibody 1 µg/ml diluted 1:81
Experimental: as §1

CTLA4-mFc [7] = target: T1, CTLA4-mFc; test: competitive ELISA, B7/1-hFc coated (competitor), CTLA4-mFc added; antibody 5 µg/ml diluted 1:3
Experimental: as §1

EC50 (CTLA4-mFc [1]): 1.97 nM
EC50 (CTLA4-mFc [2]): 0.227 nM
absorbance at 450 nm (CTLA4-mFc [3]): 0.05
absorbance at 450 nm (CTLA4-mFc [4]): 0.07
absorbance at 450 nm (CTLA4-mFc [5]): 0.05
absorbance at 450 nm (CTLA4-mFc [6]): 0.75
absorbance at 450 nm (CTLA4-mFc [7]): 0.07
B1: humanized antibody 8D2H2L15 (antibody, V domains shown)
VH: EVQLVESGGGLVQPGGSMRLSCAASGFTFSDNWMNWVRQAPGKGLEWLAQIRNKPYNYETYYSASVKGRFTISRDDSKNSVYLQMNSLKTEDTGVYYCTAQFAYWGQGTLVTVSS
VL: DIQMTQSPSSLSASVGDRVTITCRTSENIYGGLNWYQRKPGKSPKLLIYGATNLASGVSSRFSGSGSGTDYTLTISSLQPEDVATYYCQNVLSRHPGFGSGTKLEIK

— patent US20260166139A1 (AKESO BIOPHARMA, published 2026)
